These results are taken from US20200247894A1 (Regeneron, published 2020).

The chains are these.
T1: Human IL2Rγ extracellular domain expressed with a C-terminal mouse IgG2a Fc tag (human)
T1 construct: whole entry is the Fc-fused construct; also called hIL-2Rg-mFc
T1 chain: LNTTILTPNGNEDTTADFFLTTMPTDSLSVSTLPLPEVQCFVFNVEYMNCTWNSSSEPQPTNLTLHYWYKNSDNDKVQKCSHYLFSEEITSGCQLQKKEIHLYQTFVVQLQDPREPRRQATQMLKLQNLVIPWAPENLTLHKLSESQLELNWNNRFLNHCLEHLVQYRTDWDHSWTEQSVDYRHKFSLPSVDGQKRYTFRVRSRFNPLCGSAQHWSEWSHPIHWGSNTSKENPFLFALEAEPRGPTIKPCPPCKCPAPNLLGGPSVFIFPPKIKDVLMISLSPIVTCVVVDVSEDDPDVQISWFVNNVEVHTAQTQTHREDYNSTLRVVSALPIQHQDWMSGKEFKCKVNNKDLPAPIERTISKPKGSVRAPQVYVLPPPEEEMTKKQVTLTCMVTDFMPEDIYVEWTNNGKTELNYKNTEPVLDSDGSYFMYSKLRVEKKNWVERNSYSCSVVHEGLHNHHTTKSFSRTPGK

T2: Mouse IL2Rγ extracellular domain expressed with a C-terminal myc-myc-hexahistidine tag (mouse)
T2 construct: whole entry is the tagged construct; also called mIL-2Rg-MMH
T2 chain: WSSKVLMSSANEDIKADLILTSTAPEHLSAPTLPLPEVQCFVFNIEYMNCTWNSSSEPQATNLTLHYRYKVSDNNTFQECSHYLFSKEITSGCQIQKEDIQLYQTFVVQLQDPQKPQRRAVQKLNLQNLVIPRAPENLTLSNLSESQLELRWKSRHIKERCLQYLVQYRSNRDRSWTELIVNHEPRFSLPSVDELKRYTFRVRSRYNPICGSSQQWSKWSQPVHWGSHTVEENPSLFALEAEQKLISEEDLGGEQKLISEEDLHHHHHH

T3: Rat IL2Rγ extracellular domain expressed with a C-terminal myc-myc-hexahistidine tag (rat)
T3 construct: whole entry is the tagged construct; also called rIL-2Rg-MMH; rat IL-2Rg-MMH
T3 chain: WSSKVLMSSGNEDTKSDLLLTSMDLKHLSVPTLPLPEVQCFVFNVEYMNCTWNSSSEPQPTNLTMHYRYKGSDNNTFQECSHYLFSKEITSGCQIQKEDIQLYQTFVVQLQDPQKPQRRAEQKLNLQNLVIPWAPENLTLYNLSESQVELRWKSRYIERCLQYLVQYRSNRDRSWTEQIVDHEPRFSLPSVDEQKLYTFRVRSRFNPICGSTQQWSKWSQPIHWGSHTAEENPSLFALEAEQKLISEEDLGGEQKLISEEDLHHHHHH

T4: Macaca fascicularis IL2Rγ extracellular domain expressed with a C-terminal myc-myc-hexahistidine tag (Macaca fascicularis)
T4 construct: whole entry is the tagged construct; also called mfIL-2Rg-MMH
T4 chain: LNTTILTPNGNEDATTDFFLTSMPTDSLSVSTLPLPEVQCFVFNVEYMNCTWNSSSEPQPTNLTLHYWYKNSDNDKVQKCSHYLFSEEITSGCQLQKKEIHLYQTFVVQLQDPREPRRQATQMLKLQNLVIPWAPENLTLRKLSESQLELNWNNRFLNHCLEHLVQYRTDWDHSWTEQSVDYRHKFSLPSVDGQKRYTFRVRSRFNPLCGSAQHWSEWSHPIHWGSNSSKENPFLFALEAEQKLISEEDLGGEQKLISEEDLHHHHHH

B1: H4H12913P2 (antibody, human IgG4 S228P, kappa, V domains shown)
VH: EVQLVESGGGVVRPGGSLRLSCAASGFTFDDYGMSWVRQAPGKGLEWISSINRNGGSADYADSVKGRFTISRDNAKNSLFLQMSSLRAEDTALYHCASGEFRFDYWGQGTLVTVSS
VL: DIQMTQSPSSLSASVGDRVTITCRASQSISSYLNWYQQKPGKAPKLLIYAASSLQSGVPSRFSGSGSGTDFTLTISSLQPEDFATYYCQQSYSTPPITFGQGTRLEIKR
notes: fully human anti-IL2Rgamma mAb, human IgG4 Fc
B2: H4H12884P (antibody, human IgG4 S228P, kappa, V domains shown)
VH: QVQLQESGPGLVKPSQTLSLTCTVSGGSISSGGYYWSWIRQHPGKGLEWIGFIYYSGKTYYNPSLKSRLTISVDTSKSQFSLKLRSVTAADTAVYYCARLGYTNSAGWFDPWGQGTLVTVSS
VL: DIQMTQSPSSLSASVGDRVTITCRASQSISSYLNWYQQKPGKAPNLLIYAASSLQSGVPSRFSGSGSGTDFTLTISSLQPEDLATYYCQQSYTTPFTFGPGTKVDIKR
notes: as for B1
B3: H4H12858P (antibody, human IgG4 S228P, kappa, V domains shown)
VH: EVQLVESGGDLVQPGGSLRLSCTASGFIFRNYAMNWVRQAPGKGLEWLSGILGSNDNTYYVDSVKGRFTISRDNSRNTLYLQMNSLRAEDSAVYYCAKGDAGGFDYWGQGTLVTVSS
VL: DVVMTQSPLSLPVILGQPASISCRSSQSLVSSDGNTYLNWFQQRPGQSPRRLIYKVSNRDSGVPDRFSGSGSGTDFTLKISRVEAEDVGAYYCMQGSYWPPTFGQGTKLEIKR
notes: fully human anti-IL2Rgamma mAb, human IgG4 Fc; also called REGN9433
B4: H4H12871P (antibody, human IgG4 S228P, kappa, V domains shown)
VH: QVQLQESGPGLVKPSQTLSLTCTVSGGSITSGGYYWSWIRQYPGQGLEWIGYIYYSGKTYYNPSFTSRITISVDTSKKQFSLKMSSVTAADTAVYYCARAGFTSSNGWFDPWGQGTLVTVSS
VL: DIQMTQSPSSLSASVGDRVTITCRASQNIRSYLNWYQQKPGKAPKLLIYSASSLQSGVPSRFSGSGSGTDFTLTISSLQPEDFPTYYCQQTYSSPWTFGPGTKVEIKR
notes: fully human anti-IL2Rgamma mAb, human IgG4 Fc; also called REGN9434
B5: H4H12886P (antibody, human IgG4 S228P, kappa, V domains shown)
VH: EVQLVESGGGLVKPGGSLRLSCAASGFTFSTAWMSWVRQSPGRGLEWVGRMKSKTDGGTTFYAAPVKGRFTISRDDSKNTLYLQMNSLKTEDTAVYYCTTGLVPAFYKYYGVDVWGQGTTVTVSS
VL: DIQMTQSPSSLSASVGDRITITCQASQDITNYLNWYQQKPGKAPNLLIYDASNLVTGVPSRFSGSGSGTDFTFTILSLQPEDIATYYCQQYDSLLTFGPGTKVDIKR
notes: as for B1

By Kd is commonly meant a measure of binding affinity in units of concentration. Low readings indicate tighter binding, high ones weaker binding. A word on the koff: it is the first-order rate constant of dissociation. Low values mean a long-lived complex, high ones a short-lived complex. One may read the kon as a measure of how fast the partners come together. A high value points to fast association.

The first assay deals with T1, Human IL2Rγ extracellular domain …. Description: SPR Biacore 4000, anti-hFc-captured mAb, 25 C. On the procedure:
(§1) Equilibrium dissociation constants (KD values) for IL-2Rγ binding to purified anti-IL2Rγ monoclonal antibodies were determined using a Biacore 4000 instrument equipped with a real-time surface plasmon resonance biosensor. All binding studies were performed in 10 mM HEPES, 150 mM NaCl, 3 mM EDTA, and 0.05% v/v Surfactant Tween-20, pH 7.4 (HBS-ET) running buffer at 25° C. and 37° C. The Biacore sensor surface was first derivatized by amine coupling with a monoclonal mouse anti-human Fc antibody (GE, # BR-1008-39) to capture anti-IL2Rγ monoclonal antibodies.
(§2) The dissociation of monoclonal antibody bound IL2Rγ reagents were monitored for 8-10 minutes in HBS-ET running buffer. Kinetic association (kₐ) and dissociation (kd) rate constants were determined by fitting the real-time sensorgrams to a 1:1 binding model using Scrubber 2.0c curve fitting software. Binding dissociation equilibrium constants (KD) and dissociative half-lives (t_{1/2}) were calculated from the kinetic rate constants as: […]
For orientation: SPR reads the build-up and loss of mass on a sensor chip optically.
Take B1: the “50 nM Ag Bound” value was 12 RU, the Kd was 1.3 nM, the dissociation rate constant (koff) came out at 5.34e-05 s⁻¹ and the kon stood at 41200 M⁻¹ s⁻¹. The t1/2 stood at 3.6 h.
Take B2: the “50 nM Ag Bound” value worked out at 112 RU, binding was characterised by a dissociation constant (Kd) of 0.113 nM, the koff is 4.02e-05 s⁻¹ and the kon amounted to 355000 M⁻¹ s⁻¹. Moreover, the t1/2 amounted to 4.78 h.
Take B3: the “50 nM Ag Bound” value amounted to 46 RU, the Kd turned out to be 0.855 nM, the koff was 9.94e-05 s⁻¹ and the kon came to 116000 M⁻¹ s⁻¹. Moreover, the t1/2 came to 1.93 h.
The corresponding values for B4 are 103 RU, 0.144 nM, 5.22e-05 s⁻¹, 363000 M⁻¹ s⁻¹ and 3.68 h.
Taken in the same sequence, the figures for B5 were 23 RU, 1.26 nM, 6.7e-05 s⁻¹, 53400 M⁻¹ s⁻¹ and 2.87 h.

The target of the next assay is T2, Mouse IL2Rγ extracellular domain …. Put plainly: SPR Biacore 4000, anti-hFc-captured mAb, 25 C. On the procedure: as §1, §2
Consider B1, for which the “100 nM Ag Bound” value was 1 RU and the binding result is recorded as “no binding (tested: 100 nM)”.
The corresponding values for B2 are 2 RU and “no binding (tested: 100 nM)”.
The corresponding values for B3 are 2 RU and “no binding (tested: 100 nM)”.
For the molecule B4, the “100 nM Ag Bound” value turned out to be 0 RU.
Same read-out and setting: in the case of B5 it was 2 RU.

Another assay has as its target T3, Rat IL2Rγ extracellular domain …. Put plainly: SPR Biacore 4000, anti-hFc-captured mAb, 25 C. The method, then:
as §1, §2
Take B1: the “100 nM Ag Bound” value was found to be 1 RU and the binding result is listed as “no binding (tested: 100 nM)”.
As for B2, the “100 nM Ag Bound” value came to 4 RU and the binding result was “no binding (tested: 100 nM)”.
Taken in the same sequence, the figures for B3 were 0 RU and “no binding (tested: 100 nM)”.
Taken in the same sequence, the figures for B4 were 1 RU and “no binding (tested: 100 nM)”.
Taken in the same sequence, the figures for B5 were 3 RU and “no binding (tested: 100 nM)”.

For another assay, the target named is T4, Macaca fascicularis IL2Rγ extracellular …. Put plainly: SPR Biacore 4000, anti-hFc-captured mAb, 37 C. The method, then: as §1, §2
For the molecule B1, the “100 nM Ag Bound” value was 20 RU; the affinity, expressed as Kd, was 37.3 nM; the koff is 0.00296 s⁻¹; the on-rate (kon) stood at 79300 M⁻¹ s⁻¹. The molecule also had a t1/2 of 0.0667 h.
On to B2, for which the “100 nM Ag Bound” value stood at 59 RU; the affinity, expressed as Kd, was 16.1 nM; the koff came to 0.00321 s⁻¹; the kon is 200000 M⁻¹ s⁻¹. Besides, the t1/2 stood at 0.0667 h.
For the molecule B3, the “100 nM Ag Bound” value is 47 RU, the equilibrium dissociation constant (Kd) amounted to 4.77 nM, the koff worked out at 0.00148 s⁻¹ and the kon amounted to 309000 M⁻¹ s⁻¹. The t1/2 was determined as 0.133 h.
Taken in the same sequence, the figures for B4 were 55 RU, 12.7 nM, 0.00261 s⁻¹, 206000 M⁻¹ s⁻¹ and 0.0667 h.
The corresponding values for B5 are 47 RU, 17.7 nM, 0.000846 s⁻¹, 47800 M⁻¹ s⁻¹ and 0.233 h.

In the next assay the target is T1, Human IL2Rγ extracellular domain …. Put plainly: SPR Biacore 4000, anti-hFc-captured mAb, 37 C. On the procedure: as §1, §2
On to B1, for which the “50 nM Ag Bound” value amounted to 9 RU, the Kd came out at 2.53 nM, the koff worked out at 0.000185 s⁻¹ and the kon was determined as 73200 M⁻¹ s⁻¹. The molecule further had a t1/2 of 1.03 h.
In the case of B2, the “50 nM Ag Bound” value came out at 85 RU, the equilibrium dissociation constant (Kd) was 0.0554 nM, the dissociation rate constant (koff) was found to be 2.69e-05 s⁻¹ and the on-rate constant (kon) worked out at 486000 M⁻¹ s⁻¹. Further, the t1/2 is 7.15 h.
Taken in the same sequence, the figures for B3 were 37 RU, 1.49 nM, 0.00025 s⁻¹, 167000 M⁻¹ s⁻¹ and 0.767 h.
B4: the “50 nM Ag Bound” value turned out to be 81 RU, binding was put at a Kd of 0.0505 nM, the koff amounted to 2.39e-05 s⁻¹ and the on-rate (kon) was 473000 M⁻¹ s⁻¹. Besides, the t1/2 came to 8.07 h.
Take B5: the “50 nM Ag Bound” value worked out at 19 RU, the Kd is 12.8 nM, the koff was 9.09e-05 s⁻¹ and the kon came to 7080 M⁻¹ s⁻¹. The molecule also returned a t1/2 of 2.12 h.

The target in a further assay is T2, Mouse IL2Rγ extracellular domain …. Description: SPR Biacore 4000, anti-hFc-captured mAb, 37 C. The method, then:
as §1, §2
In the case of B1, the “100 nM Ag Bound” value is 0 RU.
The same measure, in the same setting: in the case of B2 it was 1 RU.
With B3, the “100 nM Ag Bound” value was 0 RU.
On to B4, for which the “100 nM Ag Bound” value is -1 RU.
Still for that read-out and setting: in the case of B5 it was -2 RU.

The next assay deals with T3, Rat IL2Rγ extracellular domain …. Put plainly: SPR Biacore 4000, anti-hFc-captured mAb, 37 C. The method, then:
as §1, §2
As to B1, the “100 nM Ag Bound” value is 3 RU.
As to B2, the “100 nM Ag Bound” value turned out to be 4 RU.
On the same count and under the same terms, in the case of B3 it was 0 RU; in that of B4, 1 RU.
As to B5, the “100 nM Ag Bound” value came out at 4 RU.
